Source: PMC12365249

Target: FOXA1 (UniProt P55317)
Assay: endogenous co-IP with FOXA1 antibody
Conditions: reference: wild type; sites T603

## MED15 (from UniProt Q96RN5) T603A knock-in
  binding against the reference: stronger
